Measurements published in paper PMC4641746 (Cell, 2015).

Assays:
[1] = biological target: Y46K/V66D mutant of H84T BanLec (recombinant, His-tagged) (Musa acuminata); assay: 15N NMR spin relaxation
[2] = biological target: Y46K/V66D mutant of WT BanLec (recombinant, His-tagged) (Musa acuminata); assay: 15N NMR spin relaxation
[3] = biological target: T1, BanLec (banana lectin), recombinant His-tagged WT (Musa acuminata, UniProt O22321, H84T); assay: isothermal titration calorimetry; format: binding; conditions: dimannoside linkage not printed in main text
T1 sequence (O22321 1-141 H84T): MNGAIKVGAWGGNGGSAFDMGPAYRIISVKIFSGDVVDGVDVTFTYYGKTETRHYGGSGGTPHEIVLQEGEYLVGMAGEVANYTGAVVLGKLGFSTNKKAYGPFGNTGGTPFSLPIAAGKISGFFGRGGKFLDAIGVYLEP

How did the stoichiometry N [1] turn out when “Y46K/V66D mutant of H84T BanLec (recombinant, His-tagged) (natural protein)” was run?
The stoichiometry N was 2.

For “Y46K/V66D mutant of WT BanLec (recombinant, His-tagged) (natural protein)”, which stoichiometry N [2] is on record?
Its stoichiometry N is 2.

dimannoside [M2] was tested. Which Ka [3] did it give?
Its Ka is 227.
